Measurements published in article PMC4961225, “The Molecular Basis for Ubiquitin and Ubiquitin-like Specificities in Bacterial Effector Proteases” (Molecular Cell, 2016).

Target: T1, ubiquitin (uniformly 15N-labeled Ub) (UniProt P0CG48 1-76)
T1 construct: also called 15N-Ub
Assay: NMR titration; uniformly 15N-labeled Ub observed (1H,15N-HSQC TROSY; 80 μM Ub in Figure 6), unlabeled partner added; 25°C
Details: both partners purified

B1: SseL (aa 24–340) (domain or fragment)
chain: VSDEALTLLFSAVENGDQNCIDLLCNLALRNDDLGHRVEKFLFDLFSGKRTGSSDIDKKINQACLVLHQIANNDITKDNTEWKKLHAPSRLLYMAGSATTDLSKKIGIAHKIMGDQFAQTDQEQVGVENLWCGARMLSSDELAAATQGLVQESPLLSVNYPIGLIHPTTKENILSTQLLEKIAQSGLSHNEVFLVNTGDHWLLCLFYKLAEKIKCLIFNTYYDLNENTKQEIIEAAKIAGISESDEVNFIEMNLQNNVPNGCGLFCYHTIQLLSNAGQNDPATTLREFAENFLTLSVEEQALFNTQTRRQIYEYSLQ
binding result: binds
